The values that follow come from patent US12295987B2, “Method of using a GIP/GLP1 co-agonist for diabetes” (Eli Lilly and Company, priority 2018, dated 2025).

The target of this experiment is T1, human gastric inhibitory peptide receptor (hGIPR) (Homo sapiens, UniProt P48546).
T1 construct: expressed in transfected cells; host or cells: HEK293
T1 sequence (P48546 22-466): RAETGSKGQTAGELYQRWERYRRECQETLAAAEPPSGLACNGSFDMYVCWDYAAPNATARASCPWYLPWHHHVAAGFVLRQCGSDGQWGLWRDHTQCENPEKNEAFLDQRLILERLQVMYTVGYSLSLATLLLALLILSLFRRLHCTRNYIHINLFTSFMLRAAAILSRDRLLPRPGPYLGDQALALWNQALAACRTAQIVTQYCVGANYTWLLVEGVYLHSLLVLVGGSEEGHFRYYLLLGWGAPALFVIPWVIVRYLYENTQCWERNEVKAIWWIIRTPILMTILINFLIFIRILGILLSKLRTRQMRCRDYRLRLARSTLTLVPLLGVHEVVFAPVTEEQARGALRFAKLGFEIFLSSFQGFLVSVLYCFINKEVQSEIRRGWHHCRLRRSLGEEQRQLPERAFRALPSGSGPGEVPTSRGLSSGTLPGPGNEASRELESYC
Put plainly: cAMP pharmacological functional assay in presence of 0.1% casein, hGIPR. The class given is cell-based. Conditions: ratio of hGIPR to hGLP1R cAMP EC50 ratios.

As to “Y-Aib-EGT-αMeF(2F)-TSDYSI-αMeL-LDEK((2-[2-(2-Amino-ethoxy)-ethoxy]-acetyl)2-(γGlu)-CO—(CH2)14—CO2H)AQ-Aib-EFI-(D-Glu)-YLIEGGPSSGAPPPS-NH2 (YXEGTXTSDYSIXLDEKAQXEFIXYLIEGGPSSGAPPPS; Aib, αMeF(2F), αMeL, D-Glu; lipidated K; amide; (2)..(2) Xaa at position 2 is Aib; (6)..(6) Xaa at position 6 is alpha-methyl-Phe(2F); (13)..(13) Xaa at position 13 is alpha-methyl-Leu; MOD_RES (17)..(17) Lys at position 17 is chemically modified by conjugation of the epsilon-amino group of the Lys side chain with (2-[2-(2-amino-ethoxy)-ethoxy]-acetyl)2-(gamma-Glu)-CO-(CH2)14- CO2H; (20)..(20) Xaa at position 20 is Aib; (24)..(24) Xaa at positi) [Peptide 208]”, the “[hGIPR/hGLP1R] EC50 Ratio” value was 9.08.

On to “Y-Aib-EGT-αMeF(2F)-TSDYSI-αMeL-LDEK((2-[2-(2-Amino-ethoxy)-ethoxy]-acetyl)2-(γGlu)-CO—(CH2)16—CO2H)AQ-Aib-EFI-(D-Glu)-YLIEGG-NH2 (YXEGTXTSDYSIXLDEKAQXEFIXYLIEGG; Aib, αMe, D-Glu, C18 diacid lipidation, C-amide; (2)..(2) Xaa at position 2 is Aib; (6)..(6) Xaa at position 6 is alpha-methyl-Phe(2F); (13)..(13) Xaa at position 13 is alpha-methyl-Leu; MOD_RES (17)..(17) Lys at position 17 is chemically modified by conjugation of the epsilon-amino group of the Lys side chain with (2-[2-(2-amino-ethoxy)-ethoxy]-acetyl)2-(gamma-Glu)-CO-(CH2)16- CO2H; (20)..(20) Xaa at position 20 is Aib; (24)..(24) Xaa at positi) [Peptide 220]”, for which the “[hGIPR/hGLP1R] EC50 Ratio” value is on record as 4.63.

Consider “Y-Aib-EGT-αMeF(2F)-TSDYSI-αMeL-LDEK((2-[2-(2-Amino-ethoxy)-ethoxy]-acetyl)2-(γGlu)-CO—(CH2)16—CO2H)AQ-Aib-EFI-(D-Glu)-YLIEGGPSSG-NH2 (YXEGTXTSDYSIXLDEKAQXEFIXYLIEGGPSSG; Aib, αMe, D-Glu, C18 diacid lipidation, C-amide; (2)..(2) Xaa at position 2 is Aib; (6)..(6) Xaa at position 6 is alpha-methyl-Phe(2F); (13)..(13) Xaa at position 13 is alpha-methyl-Leu; MOD_RES (17)..(17) Lys at position 17 is chemically modified by conjugation of the epsilon-amino group of the Lys side chain with (2-[2-(2-amino-ethoxy)-ethoxy]-acetyl)2-(gamma-Glu)-CO-(CH2)16- CO2H; (20)..(20) Xaa at position 20 is Aib; (24)..(24) Xaa at positi) [Peptide 219]”, for which the “[hGIPR/hGLP1R] EC50 Ratio” value worked out at 5.69.

In the case of “Y-Aib-EGT-αMeF(2F)-TSDYSI-αMeL-LDEK((2-[2-(2-Amino-ethoxy)-ethoxy]-acetyl)2-(γGlu)-CO—(CH2)16—CO2H)AQ-Aib-EFI-(D-Glu)-YLIEGGPSSGAPPPS-NH2 (YXEGTXTSDYSIXLDEKAQXEFIXYLIEGGPSSGAPPPS; Aib, αMeF(2F), αMeL, D-Glu; lipidated K; amide; (2)..(2) Xaa at position 2 is Aib; (6)..(6) Xaa at position 6 is alpha-methyl-Phe(2F); (13)..(13) Xaa at position 13 is alpha-methyl-Leu; MOD_RES (17)..(17) Lys at position 17 is chemically modified by conjugation of the epsilon-amino group of the Lys side chain with (2-[2-(2-amino-ethoxy)-ethoxy]-acetyl)2-(gamma-Glu)-CO-(CH2)16- CO2H; (20)..(20) Xaa at position 20 is Aib; (24)..(24) Xaa at positi) [Peptide 221]”, the “[hGIPR/hGLP1R] EC50 Ratio” value was 5.66.

In the case of “Y-Aib-EGT-αMeF(2F)-TSDYSI-αMeL-LDEK((2-[2-(2-Amino-ethoxy)-ethoxy]-acetyl)2-(γGlu)-CO—(CH2)16—CO2H)AQ-Aib-EFIEYLIEGG-NH2 (YXEGTXTSDYSIXLDEKAQXEFIEYLIEGG; Aib, αMe residues, C18 diacid lipidation, C-amide; (2)..(2) Xaa at position 2 is Aib; (6)..(6) Xaa at position 6 is alpha-methyl-Phe(2F); (13)..(13) Xaa at position 13 is alpha-methyl-Leu; MOD_RES (17)..(17) Lys at position 17 is chemically modified by conjugation of the epsilon-amino group of the Lys side chain with (2-[2-(2-amino-ethoxy)-ethoxy]-acetyl)2-(gamma-Glu)-CO-(CH2)16- CO2H; (20)..(20) Xaa at position 20 is Aib; MOD_RES (30)..(30) Gly a) [Peptide 104]”, the “[hGIPR/hGLP1R] EC50 Ratio” value is on record as 2.66.

Turning to “Y-Aib-EGT-αMeF(2F)-TSDYSI-αMeL-LDEK((2-[2-(2-Amino-ethoxy)-ethoxy]-acetyl)2-(γGlu)-CO—(CH2)18—CO2H)AQ-Aib-EFI-(D-Glu)--αMeY-LIEGGPSSGAPPPS-NH2 (YXEGTXTSDYSIXLDEKAQXEFIXXLIEGGPSSGAPPPS; Aib, αMeF(2F), αMeL, D-Glu, αMeY; lipidated K; amide; (2)..(2) Xaa at position 2 is Aib; (6)..(6) Xaa at position 6 is alpha-methyl-Phe(2F); (13)..(13) Xaa at position 13 is alpha-methyl-Leu; MOD_RES (17)..(17) Lys at position 17 is chemically modified by conjugation of the epsilon-amino group of the Lys side chain with (2-[2-(2-amino-ethoxy)-ethoxy]-acetyl)2-(gamma-Glu)-CO-(CH2)18- CO2H; (20)..(20) Xaa at position 20 is Aib; (24)..(24) Xaa at positi) [Peptide 222]”, the “[hGIPR/hGLP1R] EC50 Ratio” value came out at 3.77.

As to “Y-Aib-EGT-αMeF(2F)-TSDYSI-αMeL-LDEK((2-[2-(2-Amino-ethoxy)-ethoxy]-acetyl)2-(γGlu)-CO—(CH2)18—CO2H)AQ-Aib-EFI-(D-Glu)-YLIEGGPSSGAPPPS-NH2 (YXEGTXTSDYSIXLDEKAQXEFIXYLIEGGPSSGAPPPS; Aib, alphaMe residues, C20 diacid lipidation, C-amide; (2)..(2) Xaa at position 2 is Aib; (6)..(6) Xaa at position 6 is alpha-MeF(2F); (13)..(13) Xaa at position 13 is alpha-MeL; MOD_RES (17)..(17) K at position 17 is chemically modified by conjugation of the epsilon-amino group of the K side chain with (2-[2-(2-amino-ethoxy)-ethoxy]-acetyl)2-(gamma-Glu)-CO-(CH2)18- CO2H; (20)..(20) Xaa at position 20 is Aib; (24)..(24) Xaa at position 24 is D-Glu; MO) [Peptide 1]”, the “[hGIPR/hGLP1R] EC50 Ratio” value turned out to be 4.15.
